Assay results: US20060078953

Test system: histone H4 methylated at arginine 3

commercially available skeletal muscle PAD
Western blot staining with antibodies to methylated arginine 3 H4 after PAD treatment: A complete loss of staining with antibodies to this modification was observed following PAD treatment.
